Key:
Conditions in all cases: both partners purified
[1] = target: T1, Human Rac1 (residues 1-177), GMPPNP-loaded (human, UniProt P63000 1-177); assay: ITC; POSH_(315-380) (1000 uM) titrated into GMPPNP-loaded Rac1 (125 uM), 35 °C, 50 mM HEPES pH 6.9, 150 mM NaCl, 5 mM MgCl2, 2 mM TCEP; model 'One set of sites'; duplicates
[2] = target: T1, Human Rac1 (residues 1-177), …; assay: ITC; Kd at 25 °C not measured directly (binding enthalpy close to 0); estimated through linear extrapolation of the Gibbs free energy measured by ITC at 5, 10, 15 and 35 °C; same buffer
[3] = target: T1, Human Rac1 (residues 1-177), …; assay: NMR 15N CEST; 15N POSH_(315-380) (500 uM) with 20% molar ratio of Rac1 (100 uM), 950 MHz, four B1 fields (5.2, 10.3, 20.5, 68.6 Hz); global fit with a linear 4-site exchange model (ChemEx), total bound population fixed from Kd = 24 uM at 25 °C

Kd [1]: 21 to 46 µM
Kd [2]: 24 µM
kAB (intermediate A to B, folding of the MRE1 helix on Rac1, 4-site model) [3]: 72 s⁻¹
kBC (intermediate B to final complex C, folding of MRE2 on Rac1, 4-site model) [3]: 89 s⁻¹
B1: POSH_(315-380), shorter construct of human POSH comprising MRE1 and MRE2 (domain or fragment)
chain: GHMWSQASQNRHSMEISPPVLISSSNPTAAARISELSGLSCSAPSQVHISTTGLIVTPPPSSPVTTGPSF
